Measured values from US20250228895A1, “COMPOUNDS TO INHIBIT YTHDF2, T HELPER CELLS LACKING EXPRESSION OF YTHDF2, AND METHODS TO TREAT CANCER” (City of Hope, priority 2024, published 2025).

Legend:
B16-OVA cells = assay: WT vs Ythdf2-KO B16-OVA tumor growth in C57BL/6 mice with AZD8797 or liposomal clodronate; type: in vivo, mouse; details: 1 mg/kg i.p. once per day
Description: FIGS. 24A-24L show loss of YTHDF2 in tumor cells promotes the recruitment of CX3CR1^+ macrophage via CX3CL1. (A) Volcano plot showing the differentially expressed genes (DEGs) between WT and Ythdf2-KO MC38 tumor. DEGs with an absolute log-transformed fold change of >0.25 and adjusted P value of <0.05 (determined by two-sided Wilcoxon rank-sum test and adjusted using the Bonferroni correction) were defined as significant. […] (C) Heatmap of differential expression genes in leukocyte migration pathway between WT and Ythdf2-KO MC38 tumor cells. […] (E) The absolute number of CX3CR1^+F4/80^+CD11b^+ TAMs from WT and Ythdf2-KO B16-OVA tumors after tumor inoculation (n=3 tumors per group). (F) Schematic representation of a transwell coculture assay involving BMDMs treated with WT or Ythdf2-KO tumor supernatant. (G) Migration cell number of BMDMs induced by WT or Ythdf2-KO B16-OVA tumor cells cultured supernatants, measured with a transwell assay (n=3 samples per group). (H) Migration cell number of BMDMs induced by WT or Ythdf2-KO B16-OVA tumor cell culture supernatant with or without AZD8797, measured with a transwell assay (n=3 samples per group). […] C57BL/6 mice received either an intraperitoneal injection of AZD8797 (1 mg/kg) or an equal amount of PBS once per day for 13 days. Tumor size was measured (n=5 tumors per group). […] Tumor size was measured (n=5 tumors per group). […]

CX3CR1 = target: T1, CX3CR1 (Mus musculus, UniProt Q9Z0D9); assay: Transwell BMDM migration assay with tumor supernatant and CX3CR1 blocking; type: cell-based; details: BMDMs pretreated overnight with 10 μM
T1 construct: BMDMs in the insert were pretreated overnight with 10 μM AZD8797; endogenous in cells; host or cells: primary bone-marrow-derived macrophages (BMDMs) from C57BL/6 mice
T1 sequence (Q9Z0D9 1-354): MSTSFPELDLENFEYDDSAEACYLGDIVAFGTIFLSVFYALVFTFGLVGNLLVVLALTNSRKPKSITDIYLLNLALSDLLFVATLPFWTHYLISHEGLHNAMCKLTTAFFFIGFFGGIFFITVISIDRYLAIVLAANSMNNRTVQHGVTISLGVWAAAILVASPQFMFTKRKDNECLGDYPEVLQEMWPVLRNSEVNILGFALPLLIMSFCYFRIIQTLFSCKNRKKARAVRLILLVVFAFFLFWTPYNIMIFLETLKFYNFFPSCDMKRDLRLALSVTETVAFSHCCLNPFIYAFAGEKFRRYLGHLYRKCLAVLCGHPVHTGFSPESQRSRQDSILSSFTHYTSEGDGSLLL

B16F10 = B16F10 lung metastasis model, intravenous CpG-Ythdf2 siRNA; type: in vivo, mouse
Experimental: FIGS. 15A-15P: TLR9 expression and CpG-Ythdf2 siRNA design as well as its uptake by macrophages associated with anti-tumor effect in vivo. FIG. 15A: Violin plot showing the Tlr9 expression across 15 cell clusters from scRNA-seq data in this study. FIG. 15B: Sequence of the CpG-linked mouse Ythdf2 siRNA conjugate (CpG-Ythdf2 siRNA). FIGS. 15C-15D: BMDMs were incubated with different doses of Cy3-labeled CpG-Ythdf2 siRNA (FIG. 15C) or with 100 nM Cy3-labeled CpG-Ythdf2 siRNA for the indicated times (FIG. 15D). CpG-Ythdf2 siRNA uptake was examined by flow cytometry. Data shown are representative histograms. FIG. 15E: Cy3-labeled CpG-Ythdf2 siRNA or CpG only was injected into B16-OVA tumors of C57BL/6 mice. […] Data shown are representative histograms. FIG. 15F: mRNA levels of Ythdf2 in macrophages sorted from tumor tissues of B16-OVA-bearing mice treated with CpG-Ythdf2 siRNA or CpG-scrambled siRNA (n=3 per group). […] Median fluorescence intensity (MFI) is shown. Data are shown as mean±SD and were analyzed with an unpaired two-tailed t-test (FIGS. 15F-15I) or one-way ANOVA with the Holm-Šídík post-test (FIGS. 15J-15K) or two-way ANOVA with the mixed-effects model and adjusted by Holm-Šídík post-test (FIG. 15L). […]
(§1) Tumor models and treatments. […] Metastatic nodules in the lung were analyzed macroscopically and counted. […]

B16-OVA = B16-OVA tumor model, intra-tumoral CpG-Ythdf2 siRNA; type: in vivo, mouse
Description: FIGS. 7A-7G: TLR9-targeted YTHDF2 silencing in TAMs suppresses tumor growth and synergizes with anti-PD-L1 blockade. FIG. 7A: Scheme of therapeutic strategies that use CpG-Ythdf2 siRNA alone or in combination with anti-PD-L1. FIG. 7B: B16-OVA or MC38 tumor growth in mice treated with CpG-Ythdf2 siRNA, CpG-scrambled siRNA, CpG only, or PBS (n=5 per group). FIG. 7C: Percentages of tumor-infiltrating IFN-γ-producing CD8^+ T cells in B16-OVA (n=5 per group) or MC38 tumor models (n=5 for PBS group; n=3 for CpG only, CpG-Scrambled siRNA, and CpG-Ythdf2 groups) as described in FIG. 7B. For the MC38 model, tumors in the CpG only, CpG-Scrambled siRNA, and CpG-Ythdf2 groups were pooled for flow cytometry due to small tumor size (sample size after pooling n=3). FIG. 7D: B16-OVA tumor growth in mice treated with CpG-Ythdf2 siRNA, CpG-scrambled siRNA, or in combination with anti-PD-L1 (left, n=5-6 per group) and percentages of tumor-infiltrating IFN-γ-producing CD8^+ T cells (right, n=5 for CpG-scrambled siRNA plus IgG and CpG-scrambled siRNA plus anti-PD-L1 groups, n=3 for CpG-Ythdf2 siRNA plus IgG and CpG-Ythdf2 siRNA plus anti-PD-L1 groups). Tumors from the CpG-Ythdf2 siRNA plus IgG and CpG-Ythdf2 siRNA plus anti-PD-L1 groups were pooled for flow cytometry due to small tumor size (sample size after pooling n=3). FIG. 7E: IFN-γ and granzyme B production by Ly95 T cells when co-cultured with WT or YTHDF2 knock-down macrophages preloaded with NY-ESO157-c165 peptide (n=5). FIGS. 7F-7G: Colon cancer sections were immunohistochemically stained with YTHDF2 plus CD68 or CD8 alone. Dash lines outline the edge of tumor zones. Asterisk marks the stroma tissues. Representative YTHDF2^+CD68^+ high (Patient #11) and YTHDF2^+CD68^+ low (Patient #2) specimens are shown (FIG. 7F). Scale bars=100 μm. Black rows mark YTHDF2^+CD68^+ cells. Correlations between YTHDF2^+CD68^+ cells and CD8^+ T cells in the stroma area are shown (FIG. 7G: n=18 patients). Data are shown as mean SD and were analyzed with one-way ANOVA with the Holm-Šídík post-test (FIGS. 7C-7E) or two-way ANOVA with mixed-effects model (FIGS. 7B, 7D) and adjusted by the Holm-Šídík post-test or Spearman correlation (FIG. 7G). Data in FIGS. 7B-7E are representative of at least two independent experiments (*P<0.05, **P<0.01, ***P<0.001, ****P<0.0001).
Tumor models and treatments. B16-OVA (2×10^5) or MC38 cells (2×10^5) were implanted subcutaneously (s.c.) into the flank of mice. […] For the lung metastatic melanoma model, B16F10 cells (1×10^5) were injected intravenously (i.v.) into the mice. Fourteen days after injection, mice were euthanized for post-mortem analysis. Metastatic nodules in the lung were analyzed macroscopically and counted. […] To co-transfer with macrophages, B16-OVA (2×10^5) or MC38 cells (2×10^5) were mixed with an equal number of bone marrow-derived macrophages (BMDMs) from WT or Ythdf2-cKO mice and implanted s.c. into the flank of WT mice, or Rag1^−/− mice injected i.v. without or with CD3^+ T cells (5×10^6). To knock down Stat1 using siRNA, BMDMs were transfected with siGENOME mouse Stat1 siRNA (Catalog: M-058881-02-0005, Horizon) at 100 nM using lipofectamine 3000 (Invitrogen). 48 h later, cells were collected and mixed with an equal number of B16-OVA cells (2×10^5) and implanted s.c. into the flank of WT mice.
For the uptake studies, CpG-Ythdf2 siRNA (SS) was labeled using […] Cy3. In vivo delivery of CpG-Ythdf2 siRNA for treatment began when the largest diameter of the tumors reached 5-8 mm-typically 5-7 days after inoculation. Mice were injected intratumorally every other day with 5 mg/kg of CpG-Ythdf2 siRNA, CpG-scrambled siRNAs, CpG alone or PBS in a volume of 20 μL. Tumor growth was monitored every other day.

Ythdf2 mRNA = assay: qPCR of Ythdf2 mRNA in sorted TAMs of treated B16-OVA-bearing mice; type: in vivo, mouse; details: vs CpG-scrambled siRNA group
Experimental: FIGS. 15A-15P: TLR9 expression and CpG-Ythdf2 siRNA design as well as its uptake by macrophages associated with anti-tumor effect in vivo. FIG. 15A: Violin plot showing the Tlr9 expression across 15 cell clusters from scRNA-seq data in this study. FIG. 15B: Sequence of the CpG-linked mouse Ythdf2 siRNA conjugate (CpG-Ythdf2 siRNA). FIGS. 15C-15D: BMDMs were incubated with different doses of Cy3-labeled CpG-Ythdf2 siRNA (FIG. 15C) or with 100 nM Cy3-labeled CpG-Ythdf2 siRNA for the indicated times (FIG. 15D). CpG-Ythdf2 siRNA uptake was examined by flow cytometry. Data shown are representative histograms. FIG. 15E: Cy3-labeled CpG-Ythdf2 siRNA or CpG only was injected into B16-OVA tumors of C57BL/6 mice. […] Median fluorescence intensity (MFI) is shown. Data are shown as mean±SD and were analyzed with an unpaired two-tailed t-test (FIGS. 15F-15I) or one-way ANOVA with the Holm-Šídík post-test (FIGS. 15J-15K) or two-way ANOVA with the mixed-effects model and adjusted by Holm-Šídík post-test (FIG. 15L). […]
Quantitative real-time RT-PCR (qPCR). RNA was isolated using an RNeasy Mini Kit (QIAGEN) and then reverse transcribed to cDNA with PrimeScript RT Reagent Kit with gDNA Eraser (Takara Bio) following the manufacturer's instructions. mRNA expression levels were analyzed using SYBR Green PCR Master Mix and a QuantStudio 12K Flex Real-Time PCR System (both from Thermo Fisher Scientific).

MC38 = MC38 tumor model, intra-tumoral CpG-Ythdf2 siRNA; type: in vivo, mouse
Description: FIGS. 7A-7G: TLR9-targeted YTHDF2 silencing in TAMs suppresses tumor growth and synergizes with anti-PD-L1 blockade. FIG. 7A: Scheme of therapeutic strategies that use CpG-Ythdf2 siRNA alone or in combination with anti-PD-L1. FIG. 7B: B16-OVA or MC38 tumor growth in mice treated with CpG-Ythdf2 siRNA, CpG-scrambled siRNA, CpG only, or PBS (n=5 per group). FIG. 7C: Percentages of tumor-infiltrating IFN-γ-producing CD8^+ T cells in B16-OVA (n=5 per group) or MC38 tumor models (n=5 for PBS group; n=3 for CpG only, CpG-Scrambled siRNA, and CpG-Ythdf2 groups) as described in FIG. 7B. For the MC38 model, tumors in the CpG only, CpG-Scrambled siRNA, and CpG-Ythdf2 groups were pooled for flow cytometry due to small tumor size (sample size after pooling n=3). […] Data are shown as mean SD and were analyzed with one-way ANOVA with the Holm-Šídík post-test (FIGS. 7C-7E) or two-way ANOVA with mixed-effects model (FIGS. 7B, 7D) and adjusted by the Holm-Šídík post-test or Spearman correlation (FIG. 7G). […]
as §1
For the uptake studies, CpG-Ythdf2 siRNA (SS) was labeled using fluorescein Cy3. […] Tumor growth was monitored every other day.

[1] = 5 mg/kg intratumorally every other day, vs CpG-scrambled siRNA
[2] = intra-tumoral, vs CpG-scrambled siRNA
[3] = vs CpG-Ythdf2 siRNA alone or anti-PD-L1 mAb alone

Molecule | difference of tumor growth between WT and Ythdf2-KO tumor (B16-OVA cells) | macrophage migration induced by WT vs Ythdf2-KO tumor supernatant (CX3CR1) | tumor metastasis (lung metastatic nodules) (B16F10; intravenous injection, vs CpG-scrambled siRNA) | percentage of IFN-γ-producing CD8+ T cells (B16F10; lung, vs CpG-scrambled siRNA group) | tumor growth (B16-OVA; [1]) | tumor growth in Batf3 KO mice (B16-OVA; Batf3 KO mice lacking cDC1 cells, vs CpG-scrambled siRNA) | proportion of M1 TAMs (B16-OVA; [2]) | proportion of M2 TAMs (B16-OVA; [2]) | CD8+ cytotoxic T cell responses, combination with anti-PD-L1 antibody (B16-OVA; [3]) | tumor growth, combination with anti-PD-L1 antibody (B16-OVA; [3]) | percentage of IFN-γ-producing CD8+ T cells (B16-OVA; vs CpG-scrambled siRNA group) | mRNA levels of Ythdf2 in sorted TAMs (Ythdf2 mRNA) | tumor growth (MC38; [1]) | percentage of IFN-γ-producing CD8+ T cells (MC38; vs CpG-scrambled siRNA group)
CC(C)C[C@H](CO)Nc1nc(S[C@@H](C)c2ccccc2)nc2nc(N)sc12 [AZD8797] | abolished the difference of tumor growth | differences in macrophage migration between WT and Ythdf2 KO groups disappeared |  |  |  |  |  |  |  |  |  |  |  | 
CpG-Ythdf2 siRNA: Ythdf2 siRNA conjugated to TLR9 agonist CpG1668 ODN by carbon linker; SS SEQ ID NO:1-linker-SEQ ID NO:3, AS SEQ ID NO:2 (nucleic acid, carbon linker joining SEQ 1 and SEQ 3; modified_base 1..20 OTHER; phosphorothioate bond; modified_base 7 OTHER; Uracil; modified_base 8 OTHER; modified_base 13 OTHER; modified_base 14 OTHER; modified_base 15 OTHER; modified_base 17 OTHER; modified_base 19 OTHER; modified_base 21 OTHER; modified_base 1..3 OTHER; modified_base 2 OTHER; modified_base 6 OTHER; modified_base 11 OTHER; modified_base 18 OTHER; modified_base 22 OTHER; modified_base 23 OTHE) sense: TCCATGACGTTCCTGATGCT GCAAACUUGCAGUUUAUGUAU antisense: AUACAUAAACUGCAAGUUUGCUU |  |  | inhibited tumor metastasis | significantly higher | significantly inhibited tumor growth | still inhibited tumor growth | significantly up-regulated | down-regulated | increased | reduced tumor growth | significantly higher | significantly lower | significantly inhibited tumor growth | significantly higher
